Tests used:
[1] = target: Rab6a/RPRdel complex (Rab6a with RUN1-PLAT-RUN2 of DENND5A, loop 813–835 deleted) (human | mouse) (UniProt P20340); assay: SPR; Biacore X-100, 293 K; Rab6/RPRdel or Rab6/RPdel amine-coupled to a CM5 chip (about 2,500 RU); SNX1 fragments as analytes, 0.2 to 40 µM; 100 mM NaCl, 1 mM DTT, 0.005% P20, 10 mM HEPES pH 8.0; multi-cycle; equilibrium KD from a 1:1 model
SNX18 (Homo sapiens) = SNX18 (Homo sapiens) (UniProt Q96RF0); details: cited from earlier work
Sequence of UniProt Q96RF0 (Q96RF0 whole entry): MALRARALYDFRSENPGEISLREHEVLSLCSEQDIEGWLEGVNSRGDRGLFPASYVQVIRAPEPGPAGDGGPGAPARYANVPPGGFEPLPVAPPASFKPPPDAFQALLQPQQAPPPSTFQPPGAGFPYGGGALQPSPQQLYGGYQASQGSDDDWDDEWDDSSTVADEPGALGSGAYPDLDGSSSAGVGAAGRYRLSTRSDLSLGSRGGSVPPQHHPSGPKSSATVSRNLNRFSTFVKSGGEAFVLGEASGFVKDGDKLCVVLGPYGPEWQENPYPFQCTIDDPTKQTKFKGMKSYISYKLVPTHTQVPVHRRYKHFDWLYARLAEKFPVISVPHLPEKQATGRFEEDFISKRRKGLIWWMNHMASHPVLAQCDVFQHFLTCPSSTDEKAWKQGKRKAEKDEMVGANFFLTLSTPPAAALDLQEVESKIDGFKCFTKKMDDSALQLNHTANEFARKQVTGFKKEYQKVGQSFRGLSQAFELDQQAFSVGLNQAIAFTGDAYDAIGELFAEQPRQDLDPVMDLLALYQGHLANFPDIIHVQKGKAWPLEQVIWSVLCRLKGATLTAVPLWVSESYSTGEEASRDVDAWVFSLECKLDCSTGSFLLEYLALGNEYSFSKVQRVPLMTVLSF

Sequence of UniProt P20340 (P20340 8-195 Q72L, chain 1 of 2): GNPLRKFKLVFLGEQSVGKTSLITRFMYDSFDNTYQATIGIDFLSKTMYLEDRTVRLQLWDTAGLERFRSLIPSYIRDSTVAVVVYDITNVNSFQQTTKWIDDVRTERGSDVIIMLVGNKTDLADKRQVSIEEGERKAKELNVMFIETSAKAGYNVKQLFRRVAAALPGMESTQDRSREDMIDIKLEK
Sequence of UniProt P20340 (Q6PAL8 other isoform, or with tags, fused parts or gaps, chain 2 of 2, further chain): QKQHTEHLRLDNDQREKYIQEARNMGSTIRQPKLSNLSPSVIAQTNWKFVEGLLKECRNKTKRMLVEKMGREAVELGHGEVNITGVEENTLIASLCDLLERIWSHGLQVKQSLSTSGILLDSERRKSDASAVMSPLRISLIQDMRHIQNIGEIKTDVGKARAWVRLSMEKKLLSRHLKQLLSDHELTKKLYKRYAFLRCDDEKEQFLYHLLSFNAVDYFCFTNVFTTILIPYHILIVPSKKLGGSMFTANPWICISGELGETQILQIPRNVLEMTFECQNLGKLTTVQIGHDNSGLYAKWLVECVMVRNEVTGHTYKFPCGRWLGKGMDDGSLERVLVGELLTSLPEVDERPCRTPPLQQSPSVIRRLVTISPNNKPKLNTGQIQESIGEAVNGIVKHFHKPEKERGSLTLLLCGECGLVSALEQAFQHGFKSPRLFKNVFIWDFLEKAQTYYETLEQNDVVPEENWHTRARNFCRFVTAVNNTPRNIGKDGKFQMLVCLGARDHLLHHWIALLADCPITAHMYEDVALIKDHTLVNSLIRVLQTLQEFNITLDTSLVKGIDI

Kd [1] | Substance | Kd (SNX18 (Homo sapiens))
1.7 µM | SNX1 SNX-PX (9–303) (from UniProt Q9WV80 9-303) (domain or fragment) | –
– | FIP5 (from UniProt Q9BXF6) | 1.6 µM

Reference: article PMC3338420
